# B1: TR14 ST1-1 (40 nt) (structured_RNA)
# RNA: GCUCAAUGCGUUCACGUUUAUUCACAUUUUUGAAUUGAGC
# modifications: 2'-F pyrimidines presumed, not restated for truncates
# B2: TR14 ST1-2 (32 nt) (structured_RNA)
# RNA: AAUGCGUUCACGUUUAUUCACAUUUUUGAAUU
# modifications: 2'-F pyrimidines presumed, not restated for truncates
# Molecular target: human transferrin receptor (hTfR, hTfR1) extracellular domain (Homo sapiens, UniProt P02786 89-760)
# Assay: SPR
# human transferrin receptor (hTfR, hTfR1) extracellular domain, sequence (P02786 89-760): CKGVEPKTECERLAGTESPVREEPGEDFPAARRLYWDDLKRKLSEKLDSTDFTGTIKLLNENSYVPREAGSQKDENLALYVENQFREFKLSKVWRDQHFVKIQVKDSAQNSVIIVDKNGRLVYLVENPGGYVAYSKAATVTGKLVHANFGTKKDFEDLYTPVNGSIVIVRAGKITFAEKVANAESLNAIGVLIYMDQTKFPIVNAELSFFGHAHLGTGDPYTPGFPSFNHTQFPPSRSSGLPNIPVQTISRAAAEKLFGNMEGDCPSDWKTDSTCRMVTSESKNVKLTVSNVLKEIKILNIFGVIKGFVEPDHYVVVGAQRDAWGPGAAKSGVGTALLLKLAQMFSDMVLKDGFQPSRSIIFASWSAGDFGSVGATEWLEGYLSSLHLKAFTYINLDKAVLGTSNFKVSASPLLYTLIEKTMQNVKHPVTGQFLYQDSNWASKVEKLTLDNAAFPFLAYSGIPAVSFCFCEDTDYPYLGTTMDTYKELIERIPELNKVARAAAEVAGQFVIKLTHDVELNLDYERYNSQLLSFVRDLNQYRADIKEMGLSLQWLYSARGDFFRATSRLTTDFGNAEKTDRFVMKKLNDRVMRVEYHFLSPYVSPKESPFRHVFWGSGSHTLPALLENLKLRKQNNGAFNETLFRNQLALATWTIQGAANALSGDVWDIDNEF
row,Binder,binding result
1,B1,no binding
2,B2,no binding
